Data: patent publication US20080050387A1, “Non-Androgen Dependent Roles for Androgen Receptor and Non-Androgen Related Inhibitors of Androgen Receptor” (priority 2003, published 2008)

Molecular target: T1, AR nuclear translocation (Homo sapiens, UniProt P10275, DEL79-80/DUP473-473)
T1 construct: expressed in transfected cells; host or cells: COS-1
T1 sequence (P10275 with tags, fused parts or gaps DEL79-80/DUP473-473): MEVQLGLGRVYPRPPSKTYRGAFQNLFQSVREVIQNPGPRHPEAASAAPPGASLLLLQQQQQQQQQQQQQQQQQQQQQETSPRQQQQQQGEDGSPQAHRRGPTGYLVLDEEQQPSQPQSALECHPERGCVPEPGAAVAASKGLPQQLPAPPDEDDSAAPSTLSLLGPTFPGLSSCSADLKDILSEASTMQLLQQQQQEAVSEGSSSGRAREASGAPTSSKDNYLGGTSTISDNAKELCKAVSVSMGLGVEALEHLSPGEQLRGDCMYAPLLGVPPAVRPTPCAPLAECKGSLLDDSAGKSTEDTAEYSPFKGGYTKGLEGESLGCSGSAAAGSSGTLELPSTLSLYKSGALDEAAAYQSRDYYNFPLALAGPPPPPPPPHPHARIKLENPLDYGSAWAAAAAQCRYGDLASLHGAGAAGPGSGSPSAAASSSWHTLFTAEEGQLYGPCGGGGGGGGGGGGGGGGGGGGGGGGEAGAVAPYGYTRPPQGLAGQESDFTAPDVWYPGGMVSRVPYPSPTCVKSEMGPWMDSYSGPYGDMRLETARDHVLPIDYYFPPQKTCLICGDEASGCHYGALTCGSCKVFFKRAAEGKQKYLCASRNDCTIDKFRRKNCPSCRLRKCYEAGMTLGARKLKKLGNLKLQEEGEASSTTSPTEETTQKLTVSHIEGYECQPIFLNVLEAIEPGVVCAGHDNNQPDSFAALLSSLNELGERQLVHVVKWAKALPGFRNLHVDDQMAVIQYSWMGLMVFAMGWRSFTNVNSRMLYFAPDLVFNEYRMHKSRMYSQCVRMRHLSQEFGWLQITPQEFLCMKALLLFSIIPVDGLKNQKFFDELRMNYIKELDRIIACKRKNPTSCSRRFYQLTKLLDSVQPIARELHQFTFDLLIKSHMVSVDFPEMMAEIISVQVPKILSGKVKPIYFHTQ
Assay: Subcellular distribution of AR in COS-1 cells (immunofluorescence staining, subcellular fractionation)
Format: cell-based
Protocol: COS-1 cells were seeded on two-well Lab Tek Chamber slides (Nalge) in DMEM containing 10% CD-FBS 18 h before transfection. DNA was transfected by using FuGENE 6 Transfection Reagent (Boehringer Mannheim). After transfection, cells were treated with either 10 nM DHT or vehicle for 12 h. Then cells were fixed with fixation solution (3% paraformaldehyde and 10% sucrose in PBS) for 20 min on ice, followed by permeabilization with methanol for 10 min on ice. Slides were washed and blocked with 2% BSA in PBS for 15 min at room temperature. Then the cells were stained with 1 μg/ml rabbit polyclonal anti-AR antibody (NH27) and 1 μg/ml mouse monoclonal anti-His antibody (Santa Cruz Biotechnology) sequentially at room temperature for 1 h each. After each first Ab incubation, cells were washed and incubated with TexRed-conjugated goat anti-rabbit IgG and FITC-conjugated goat anti-mouse IgG (ICN), respectively. Stained slides were washed and mounted (Vectashield; Vector Laboratories). Fluorescence images were photographed under 400-fold magnification with a confocal microscope.
To prepare cytosolic and nuclear fractions of cells, cell monolayers were harvested with ice-cold PBS and pelleted. Cold buffer A (10 mM HEPES-KOH/pH 7.9 at 4° C., 1.5 mM MgCl2, 10 mM KCl, 0.5 mM dithiothreitol, 0.2 mM PMSF) equal to 5 times cell volume was used to resuspend the cells. […]

B1: ARA67: AR N-terminal interacting protein of 585 amino acids (SEQ ID NO:1), matches PAT1; functions as a repressor of AR (protein)
chain: MAAVELEWIPETLYNTAISAVVDNYIRSRRDIRSLPENIQFDVYYKLYQQGRLCQLGSEFCELEVFAKVLRALDKRHLLHHCFQALMDHGVKVASVLAYSFSRRCSYIAESDAAVKEKAIQVGFVLGGFLSDAGWYSDAEKVFLSCLQLCTLHDEMLHWFRAVECCVRLLHVRNGNCKYHLGEETFKLAQTYMDKLSKHGQQANKAALYGELCALLFAKSHYDEAYKWCIEAMKEITAGLPVKVVVDVLRQASKACVVKREFKKAEQLIKHAVYLARDHFGSKHPKYSDTLLDYGFYLLNVDNICQSVAIYQAALDIRQSVFGGKNIHVATAHEDLAYSSYVHQYSSGKFDNALFHAERAIGIITHILPEDHLLLASSKRVKALILEEIAIDCHNKETEQRLLQEAHDLHLSSLQLAKKAFGEFNVQTAKHYGNLGRLYQSMRKFKEAEEMHIKAIQIKEQLLGQEDYEVALSVGHLASLYNYDMNQYENAEKLYLRSIAIGKKLFGEGYSGLEYDYRGLIKLYNSIGNYEKVFEYHNVLSNWNRLRDRQYSVTDALEDVSTSPQSTEEVVQSFLISQNVEGPSC
- AR level in nuclear fraction (Western blot, after DHT treatment): decreased
- nuclear translocation of AR (immunofluorescence staining, DHT treatment): block the nuclear translocation
